Tests used:
[1] = biological target: T1, ThrRS (threonyl-tRNA synthetase) (Escherichia coli, UniProt P0A8M3 SEQ:13-654); assay: EMSA; 50 mM KCl, 5 mM MgCl2, 0-40 uM protein; stronger than Domain 2; conditions: tags: His tag (pQE-30); label: 32P
Procedure: (§1) The reaction of ThrRS with Domain 234 or Domain 2 was performed as follows under conditions involving final concentrations of 20 nM RNA, 25 mM Hepes-KOH, 50 mM KCl, 5 mM MgCl₂, 1 mM DTT, 5% glycerol, and 0 to 40 μM protein. First, […] ³²P-labeled RNA was denatured at 80° C. for 5 minutes and then supplemented with 4 μL of 5×binding buffer ([…], 250 mM KCl, 25 mM MgCl₂, 5 mM DTT, 25% glycerol) and ultrapure water. Then, the solution was mixed with the protein to adjust the whole amount to 20 μL. The reaction solution was left on ice for 60 minutes. 2 μL of dye (0.25% BPB, 0.25% XC, 30% glycerol) was added thereto, and the mixture was electrophoresed on a 12% nondenaturing polyacrylamide gel at 4° C. for 3 to 4 hours. Then, the gel was dried for 1 hour using a gel drier and analyzed for its radiation dose intensity using Bio-Imaging Analyzer (BAS2500; FUJIFILM) (FIGS. 6 and 7).
(§2) As a result, both ThrRS Domain 234 and ThrRS Domain 2 were confirmed to increase the band in a ThrRS protein concentration-dependent manner. […] As is also evident from the degree of band smear, Domain 234 has stronger binding than only Domain 2.

L7Ae [2] = biological target: T2, L7Ae (Archaeoglobus fulgidus, UniProt O29494 SEQ:21-139); assay: EMSA; 150 mM KCl, 1.5 mM MgCl2, tRNA competitor, 0-500 nM protein, on ice; conditions: tags: His tag (pET-28b+, NdeI/XhoI); label: 32P
T2 sequence (O29494 whole entry): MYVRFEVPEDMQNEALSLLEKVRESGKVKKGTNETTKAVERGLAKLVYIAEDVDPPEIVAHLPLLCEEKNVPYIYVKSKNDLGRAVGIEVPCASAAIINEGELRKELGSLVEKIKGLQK
Procedure: (§3) The reaction of L7Ae with Box C/D, Box C/D mini, or Box C/D minimut was performed at a final concentration of 10 nM, 25 nM, or 25 nM RNA, respectively. The reaction was performed as follows under conditions involving 10 nM or 25 nM RNA, 20 mM Hepes-KOH, 150 mM KCl, 1.5 mM MgCl₂, 2 mM DTT, 0.001 U/mL tRNA, 3% glycerol, and 0 to 500 nM protein. First, 1 μL of ³²P-labeled RNA was denatured at 80° C. for 5 minutes and then supplemented with 4 μL of 5×binding buffer (100 mM Hepes-KOH (pH 7.5), 750 mM KCl, 7.5 mM MgCl₂, 10 mM DTT, 0.005 U/ρL tRNA, 15% glycerol) and ultrapure water. Then, the solution was mixed with the protein to adjust the whole amount to 20 μL. The reaction solution was left on ice for 60 minutes. 2 μL of dye (0.25% BPB, 0.25% XC, 30% glycerol) was added thereto, and the mixture was electrophoresed on a 8% nondenaturing polyacrylamide gel at 4° C. for 3 to 4 hours. Then, the gel was dried for 1 hour using a gel drier and analyzed for its radiation dose intensity using Bio-Imaging Analyzer (BAS2500; FUJIFILM) (FIGS. 4 and 5).
(§4) As a result, both Box C/D and Box C/D mini were confirmed to increase the band in an L7Ae protein concentration-dependent manner.

[3] = biological target: T1, ThrRS (threonyl-tRNA synthetase); assay: EMSA; 50 mM KCl, 5 mM MgCl2, 0-40 uM protein; supershift suggests dimer; weaker than Domain 234; conditions: tags: His tag (pQE-30); label: 32P
Procedure: as §1, §2

L7Ae [4] = biological target: T2, L7Ae; assay: EMSA; no band increase at 0-500 nM protein; conditions: tags: His tag (pET-28b+, NdeI/XhoI); label: 32P
Procedure: as §3, §4

L7Ae [5] = biological target: T2, L7Ae; assay: EMSA; 150 mM KCl, 1.5 mM MgCl2, tRNA competitor, 0-500 nM protein, on ice; conditions: tags: His tag (pET-28b+, NdeI/XhoI); label: 32P; remark: listed apart in the source
Procedure: as §3

T1 sequence (P0A8M3 whole entry, the tested form may be a part): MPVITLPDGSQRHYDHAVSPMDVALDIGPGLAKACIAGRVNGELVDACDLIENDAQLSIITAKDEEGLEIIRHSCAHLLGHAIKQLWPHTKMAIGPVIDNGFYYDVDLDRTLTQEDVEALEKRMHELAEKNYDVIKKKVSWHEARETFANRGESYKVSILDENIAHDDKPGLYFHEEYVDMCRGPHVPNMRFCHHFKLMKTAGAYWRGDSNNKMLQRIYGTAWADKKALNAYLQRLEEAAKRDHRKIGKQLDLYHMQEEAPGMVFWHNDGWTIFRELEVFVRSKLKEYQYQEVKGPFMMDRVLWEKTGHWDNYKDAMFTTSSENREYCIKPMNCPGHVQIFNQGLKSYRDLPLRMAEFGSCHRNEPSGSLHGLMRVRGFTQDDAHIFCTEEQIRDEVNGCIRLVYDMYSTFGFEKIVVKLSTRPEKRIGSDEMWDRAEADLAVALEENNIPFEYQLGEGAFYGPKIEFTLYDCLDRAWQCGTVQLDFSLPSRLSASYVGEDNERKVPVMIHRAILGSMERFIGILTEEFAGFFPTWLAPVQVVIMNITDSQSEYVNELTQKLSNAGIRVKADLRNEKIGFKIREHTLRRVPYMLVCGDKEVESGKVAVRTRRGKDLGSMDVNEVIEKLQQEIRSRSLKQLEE

B1: ThrRS Domain 234 (ssRNA)
RNA: GGAUUGCGAACCAAUUUAGCAUUUGUUGGCUGCAAAUGGUUUCGCAAUGAACUGUUAAUAAACAAAUUUUUCUUUGUAUGUGAUCUUUCGUGUGGGUCACCACUGCAAA
B1: binds [1].

B2: Box C/D mini (ssRNA)
RNA: GGGCGUGAUGCGAAAGCUGACCC
B2: binds (L7Ae [2]).

B3: ThrRS Domain 2 (ssRNA)
RNA: GGCGUAUGUGAUCUUUCGUGUGGGUCACCACUGCGCC
B3: binds [3].

B4: Box C/D minimut (ssRNA)
RNA: GGGCGUCAUGCGAAAGCUGCCCC
B4: no binding (L7Ae [4]).

B5: Box C/D (ssRNA)
RNA: GGCCAGAGUGGGCGUGAUGCAUGUCUAGGAAACUAGACAUGCUGACCCACUCUGGCC
B5: binds (L7Ae [5]).
